According to patent US20160280766A1 (UNIVERSITY OF MARYLAND BALTIMORE, published 2016):
Residue numbers refer to the chain shown, from its start. Numbers in names are those of the source.

T1: FcγRIIB (human, UniProt P31994 43-217, limits assumed)
T1 construct: also called CD32; not shown: His-tag fused to the C-terminus
T1 sequence (looked up): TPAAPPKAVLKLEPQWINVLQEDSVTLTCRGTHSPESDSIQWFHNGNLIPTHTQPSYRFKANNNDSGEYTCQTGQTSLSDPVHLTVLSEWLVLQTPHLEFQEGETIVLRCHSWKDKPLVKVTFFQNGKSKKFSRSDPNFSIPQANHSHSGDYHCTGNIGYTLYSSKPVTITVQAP

T2: FcγRIIA (human, UniProt P12318 34-217, limits assumed)
T2 construct: also called CD32; not shown: His-tag fused to the C-terminus
T2 sequence (looked up): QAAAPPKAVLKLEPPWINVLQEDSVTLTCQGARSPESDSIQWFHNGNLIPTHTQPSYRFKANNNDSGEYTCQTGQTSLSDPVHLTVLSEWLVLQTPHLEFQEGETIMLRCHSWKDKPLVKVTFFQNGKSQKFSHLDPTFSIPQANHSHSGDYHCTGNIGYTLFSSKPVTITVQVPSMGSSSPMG

B1: Fc-226^hg/290^hg/E333A/K334A (other)
chain: EPKSCDKTHTNSTCPAPELLGGPSVFLFPPKPKDTLMISRTPEVTCVVVDVSHEDPEVKFNWYVDGVEVHNAKTNSTEEQYNSTYRVVSVLTVLHQDWLNGKEYKCKVSNKALPAPIAATISKAKGQPREPQVYTLPPSREEMTKNQVSLTCLVKGFYPSDIAVEWESNGQPENNYKTTPPVLDSDGSFFLYSKLTVDKSRWQQGNVFSCSVMHEALHNHYTQKSLSLSPGK
modifications: N-linked glycans at Asn297 and at engineered Asn226 and Asn290 (IgG1 heavy chain positions)
B2: Fc-S298A/E333A/K334A (other)
chain: B1 chain with N11C, S12P, T13P, N75K, S76P, T77R, S83A
modifications: N-linked glycan at Asn297
B3: IgG1 Fc variant Fc-226^hg/290^hg/S298A (other)
chain: B1 chain with S83A, A118E, A119K
modifications: N-linked glycans at Asn297 and at engineered Asn226 and Asn290 (IgG1 heavy chain positions)
B4: IgG1 Fc variant Fc-226^hg/290^hg (other)
chain: B1 chain with A118E, A119K
modifications: N-linked glycans at Asn297 and at engineered Asn226 and Asn290 (IgG1 heavy chain positions)
notes: Both CPP (226-228) and KPR (290-292) replaced by NST
B5: IgG1 Fc variant Fc-226^hg/290^hg/S298A/E333A/K334A (other)
chain: B1 chain with S83A
modifications: N-linked glycans at Asn297 and at engineered Asn226 and Asn290 (IgG1 heavy chain positions)
B6: IgG1 Fc variant Fc-290^hg (other)
chain: B1 chain with N11C, S12P, T13P, A118E, A119K
modifications: N-linked glycans at Asn297 and at engineered Asn290 (IgG1 heavy chain positions)
notes: KPR at 290-292 replaced by NST

How the values were obtained:
FcγRIIB [1] = target: T1, FcγRIIB; assay: SPR, Fc captured on Protein A, receptor injected; steady-state analysis
FcγRIIA [2] = target: T2, FcγRIIA; assay: as above
[3] = target: T3, FcγRIIIA having a Phe residue at polymorphic site 158 (human, UniProt P08637 17-208, limits assumed); assay: as above
T3 construct: also called FcγRIIIA-158F; CD16a; not shown: His-tag fused to the C-terminus

FcγRIIB [4] = target: T1, FcγRIIB; assay: ratio of SPR KDs, reference Fc-WT
FcγRIIA [5] = target: T2, FcγRIIA; assay: ratio of SPR KDs, reference Fc-WT
[6] = target: T4, FcγRIIIA having a Val residue at polymorphic site 158 (human, UniProt P08637 17-208); assay: ratio of SPR KDs, reference Fc-WT
T4 construct: also called FcγRIIIA-158V; CD16a; not shown: His-tag fused to the C-terminus

[7] = target: T3, FcγRIIIA having a Phe residue at …; assay: ratio of SPR KDs, reference Fc-WT
[8] = target: T4, FcγRIIIA having a Val residue at …; assay: SPR, Fc captured on Protein A, receptor injected; 1:1 Langmuir kinetic fit
Experimental: All experiments were performed using a Biacore T100 instrument (GE Healthcare). Protein A (Sigma-Aldrich) (0.1 mg/mL, 10 mM sodium acetate, pH 4.5) was immobilized at a density of 1000 response units (RU) in flow cells 1 and 2 of a CM5 sensor chip via standard amine-coupling procedure according to the manufacturer's instructions (GE Healthcare), using HBS-X buffer (10 mM HEPES, 150 mM NaCl, 0.05% Tween 20) as the running buffer and a flow rate of […]. Flow cell 1 was used as negative control, while flow cell 2 was used to capture wild type or hyper-glycosylated Fc variants in PBS at a density of 100-150 RU. […] Between experiments, the sensor chip surface was regenerated by 2 injections of 15 μL each of 20 mM HCl. Experimental data were corrected for instrument and bulk artifacts by referencing to a control sensor chip surface using Biacore T100 evaluation software 2.0.3 (GE Healthcare). Kinetic parameters of binding were determined using the same software and a 1:1 Langmuir binding model for all FcγRIIIA-158V interactions.

T3 sequence (P08637 17-208 limits assumed): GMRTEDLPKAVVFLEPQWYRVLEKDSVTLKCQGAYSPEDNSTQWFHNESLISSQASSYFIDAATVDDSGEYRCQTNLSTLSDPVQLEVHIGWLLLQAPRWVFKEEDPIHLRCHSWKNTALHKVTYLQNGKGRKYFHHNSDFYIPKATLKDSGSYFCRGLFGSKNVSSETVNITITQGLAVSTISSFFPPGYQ
T4 sequence (P08637 17-208 F176V): as the sequence (P08637 17-208 limits assumed) above, with F160V counted along it

| Binder | Kd (FcγRIIB [1]) [µM] | Kd (FcγRIIA [2]) [µM] | Kd [3] [µM] | fold decrease in binding (Fc-variant KD/Fc-WT KD) (FcγRIIB [4]) [fold] | fold decrease in binding (Fc-variant KD/Fc-WT KD) (FcγRIIA [5]) [fold] | fold decrease in binding (Fc-variant KD/Fc-WT KD) [6] [fold] | fold decrease in binding (Fc-variant KD/Fc-WT KD) [7] [fold] | Kd [8] [µM] |
| --- | --- | --- | --- | --- | --- | --- | --- | --- |
| B1 | 20.8 | 13.4 | 0.151 | 12.2 | 11.2 | 17.8 | 11.8 | 0.057 |
| B2 | 7.1 | – | – | – | – | – | – | 0.0021 |
| B3 | 104 | 12.8 | 0.0878 | 60.9 | 10.7 | 6.3 | 6.9 | 0.0202 |
| B4 | 51.2 | 9.1 | 0.16 | 30.1 | 7.6 | 8.6 | 12.4 | 0.0275 |
| B5 | 64.2 | 12.8 | 0.0501 | 37.8 | 10.7 | 4.8 | 3.9 | 0.0155 |
| B6 | 18.8 | – | 0.0661 | – | – | – | – | 0.0208 |
